According to publication PMC11405016:

Target: Prominin 1 (Prom1) W795R, human S1 isoform, C-terminally Strep-tagged (human)
Assay: co-IP; EVs from co-transfected Expi293 cells, purified and solubilised with 1% DDM (25 mM HEPES-NaOH pH 7.8, 150 mM NaCl, 5 mM CaCl2); Prom1-Strep captured on StrepTactinXT 4Flow resin, 1 hr at 4°C; co-purified mNeonGreen or mScarlet fluorescence on the beads measured by montaged epifluorescence imaging, normalised to mTagBFP2-Strep on the resin

- co-purified mScarlet fluorescence relative to WT Prom1 (% of WT Prom1): 60
Substance: Prominin 1 (Prom1) W795R, human S1 isoform, C-terminally Strep-tagged (natural protein)
